Four molecules from article PMC10714827 can be followed below.

Where two headings read alike, the source gives them in different places.

Assay [1] concerns the target small protein 36 (sP36), untagged, purified from heterologous expression in E. coli (Methanosarcina mazei). Nature of the assay: MST; RED-NHS-labelled untagged sP36 at 100 nM held constant (the methods say 10 nM for the AmtB1 series); AmtB1-His6 (12.5 µM to 0.38 nM) or His6-GlnK1 (7.5 µM to 0.23 nM) in 16 dilutions; concentrations on monomeric mass; standard capillaries, 100% excitation power, medium or high MST power; three biological replicates.

For assay [2], the target named is His6-sP36 purified from homologous expression in M. mazei (Methanosarcina mazei). Nature of the assay: SEC; analytical gel filtration, ENrich SEC 650; 0.5 mg untagged sP36 or 0.3 mg His6-sP36; eluted with 50 mM phosphate buffer (150 mM NaCl, pH 8.0), 1 mL/min; BioRad size-exclusion standard.
Assay [3] addresses PII-like protein GlnK1 with N-terminal His tag (Methanosarcina mazei) (UniProt Q8PYW7). Briefly: ITC; 20 µM GlnK1 in the cell titrated with 300 µM sP36; 100 mM potassium phosphate, 2 mM EDTA, pH 7.0, 25°C; model for a single ligand binding site. In general terms: In ITC the heat of successive injections is recorded.
Assay [4] has as its target small protein 36 (sP36), untagged, purified from heterologous expression in E. coli (Methanosarcina mazei). Briefly: SEC; analytical gel filtration, ENrich SEC 650; 0.5 mg untagged sP36 or 0.3 mg His6-sP36; eluted with 50 mM phosphate buffer (150 mM NaCl, pH 8.0), 1 mL/min; BioRad size-exclusion standard. In general terms: In gel filtration, larger molecules generally elute earlier.

Assay [5] has the same target. Nature of the assay: MST; RED-NHS-labelled untagged sP36 at 100 nM held constant (the methods say 10 nM for the AmtB1 series); AmtB1-His6 (12.5 µM to 0.38 nM) or His6-GlnK1 (7.5 µM to 0.23 nM) in 16 dilutions; concentrations on monomeric mass; standard capillaries, 100% excitation power, medium or high MST power; three biological replicates. This is another data set of the same source.

Consider “ammonium transporter AmtB1 with C-terminal His6-tag (from UniProt Q8U4U2 1-397) (natural protein)”, for which the Kd (in general, the concentration at which binding is half-saturated) in assay [1] was determined as 260 nM.
As to “His6-sP36 purified from homologous expression in M. mazei (natural protein)”, the stoichiometry N (usually the number of molecules, sites or subunits per partner or assembly) in assay [2] stood at 6.
Take “small protein 36 (sP36), untagged, purified from heterologous expression in E. coli (natural protein)”: in assay [3], the Kd is 5400 nM and the stoichiometry N (sP36 monomers per GlnK1 monomer) was found to be 2. For the same molecule, the stoichiometry N in assay [4] was 6.

B1: PII-like protein GlnK1 with N-terminal His tag (natural protein)
chain: MVAMKYVIAMIRPERLDAVKRELQKIEVSRLTVSSVSGYGAQKGYMEIYRAMEYDANLLEKIKIEIAVNDEFLEPTIEAIKTGAKGSDGYVGSGKIFVLPLENVIRIRTNETGPEAI
In assay [5], B1 showed a Kd of 1800 nM.
